Here are results for two molecules from publication PMC6283471.

By Kd is commonly meant the concentration at which binding is half-saturated. A low value points to tighter binding.

For assay [1], the target named is CCR5 on HEK-R5 cells (HEK 293T cells stably expressing CCR5) (UniProt P51681). In words: radioligand binding.
Assay [2] deals with FLAG/SNAP-tagged wild-type (WT) CCR5, P51681. Kind of assay: radioligand binding. As to conditions: remark: other sources report otherwise.

Consider “gp120 Bx08-sCD4 complex (from UniProt P01730)”, for which the Kd in assay [1] worked out at 14.1 nM.

B1: 125I-CCL3, P10147 24-92 (ligand)
chain: SLAADTPTACCFSYTSRQIPQNFIADYFETSSQCSKPGVIFLTKRSRQVCADPSEEWVQKYVSDLELSA
modifications: ends and bridges not checked; also: 125I-labelled, site not given here
In turn, B1 gave a Kd in assay [2] of 0.36 nM.
